In the supplement of paper PMC10567573:

B1: PTPN9 (parent)
chain: NKWTVQYNVSPLSWNVAVKFLMAR
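Note: lentivirally expressed fusions sorted by FACS into six bins by GFP to DsRed ratio, PSI derived from sequencing read proportions per bin multiplied by bin number.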

Variants of: B1
Test: protein stability index of a GFP-peptide fusion (GPS, HEK-293T) (PSI 1-6); higher = more stable
Conditions: c terminus: a fixed tail appended
NKWTVQYNVSPLSWNVAFKFLMAR [V18F] showed a protein stability index of 2.44.
NKWTVQYNVSPLSWNVAIKFLMAR [V18I] gave a protein stability index of 2.62.
Variant NKWTVQYNVSPLSWNVANKFLMAR [V18N] has a protein stability index of 2.21.
For NKWTVQYNVSPLSWNVADKFLMAR [V18D], the protein stability index was 2.03.
NKWTVQYNVSPLSWNVASKFLMAR [V18S] showed a protein stability index of 2.94.
Work on NKWTVQYNVTPLSWNVAVKFLMAR [S10T] yielded a protein stability index of 3.21.
NKWTVQYNVWPLSWNVAVKFLMAR [S10W] gave a protein stability index of 2.48.
With NKWTVQYNVSPLCWNVAVKFLMAR [S13C] the protein stability index was 3.09.
For NKWTVQYNVSPLYWNVAVKFLMAR [S13Y], the protein stability index was 2.32.
Work on NKWTVQYNVSPLHWNVAVKFLMAR [S13H] yielded a protein stability index of 2.51.
NKWTVQYNVSPLRWNVAVKFLMAR [S13R] showed a protein stability index of 2.34.
NKWTVQYNVSPLAWNVAVKFLMAR [S13A] gave a protein stability index of 1.35.
For NKWTVQYNVSPLQWNVAVKFLMAR [S13Q], the protein stability index was 2.02.
NKWTVQYNVSPLGWNVAVKFLMAR [S13G] gave a protein stability index of 2.81.
With NKWTVQYNVSPLMWNVAVKFLMAR [S13M] the protein stability index was 3.55.
For NKWTVQYNVSPLEWNVAVKFLMAR [S13E], the protein stability index was 1.69.
NWWTVQYNVSPLSWNVAVKFLMAR [K2W] showed a protein stability index of 2.89.
For NYWTVQYNVSPLSWNVAVKFLMAR [K2Y], the protein stability index was 2.49.
With NTWTVQYNVSPLSWNVAVKFLMAR [K2T] the protein stability index was 3.13.
NIWTVQYNVSPLSWNVAVKFLMAR [K2I] showed a protein stability index of 3.27.
In the case of NEWTVQYNVSPLSWNVAVKFLMAR [K2E], the protein stability index is reported as 3.64.
In the case of NKWTVQYNVSPSSWNVAVKFLMAR [L12S], the protein stability index is reported as 1.88.
NKWTVQYNVSPVSWNVAVKFLMAR [L12V] gave a protein stability index of 2.89.
For NKWTVQYNVSPHSWNVAVKFLMAR [L12H], the protein stability index was 2.66.
With NKWTVQLNVSPLSWNVAVKFLMAR [Y7L] the protein stability index was 2.76.
In the case of NKWTVQGNVSPLSWNVAVKFLMAR [Y7G], the protein stability index is reported as 1.15.
NKWTVQANVSPLSWNVAVKFLMAR [Y7A] showed a protein stability index of 3.49.
NKWTVQENVSPLSWNVAVKFLMAR [Y7E] showed a protein stability index of 2.17.
NKWTVQPNVSPLSWNVAVKFLMAR [Y7P] gave a protein stability index of 1.84.
NKWTVQKNVSPLSWNVAVKFLMAR [Y7K] gave a protein stability index of 2.94.
For NKWTVQHNVSPLSWNVAVKFLMAR [Y7H], the protein stability index was 1.68.
Work on NKWTVQTNVSPLSWNVAVKFLMAR [Y7T] yielded a protein stability index of 1.81.
NKWTVQQNVSPLSWNVAVKFLMAR [Y7Q] gave a protein stability index of 1.75.
NKWTVQYNVSPLSWNVAVKFLDAR [M22D] showed a protein stability index of 2.27.
For NKWTVQYNVSPLSWNVAVKFLPAR [M22P], the protein stability index was 2.29.
Variant NKWTVQYNVSPLSWNVAVKFLRAR [M22R] has a protein stability index of 1.88.
Work on FKWTVQYNVSPLSWNVAVKFLMAR [N1F] yielded a protein stability index of 3.7.
In the case of NKWTVQYNVSPLSWNVAVKFIMAR [L21I], the protein stability index is reported as 3.32.
Variant NKWTVQYNVSPLSWNVAVKFWMAR [L21W] has a protein stability index of 1.63.
In the case of NKWTVQYNVSPLSWNVAVKFHMAR [L21H], the protein stability index is reported as 2.98.
NKWTVQYNVSPLSWNVAVKFPMAR [L21P] showed a protein stability index of 1.26.
Variant NKWTVQYNLSPLSWNVAVKFLMAR [V9L] has a protein stability index of 2.45.
NKWTVQYNCSPLSWNVAVKFLMAR [V9C] gave a protein stability index of 3.09.
For NKWTVQYNQSPLSWNVAVKFLMAR [V9Q], the protein stability index was 1.43.
Work on NKWTVQYNVSPLSWNVAVKFLMAQ [R24Q] yielded a protein stability index of 2.94.
Variant NKWTVQYNVSPLSWNVAVKFLMAG [R24G] has a protein stability index of 2.72.
Variant NKWTVQYNVSPLSWNVAVKFLMAC [R24C] has a protein stability index of 2.63.
In the case of NKWTVQYNVSPLSWNVAVKFLMAA [R24A], the protein stability index is reported as 3.97.
NKWTVQYNVSPLSWNVAVKFLMAL [R24L] gave a protein stability index of 1.53.
NKWTVQYNVSPLSWNVAVKFLMAP [R24P] gave a protein stability index of 1.23.
For NKWTVQYNVSPLSWNVAVKFLMAH [R24H], the protein stability index was 2.82.
For NKWTVQYNVSHLSWNVAVKFLMAR [P11H], the protein stability index was 3.88.
With NKWTVQYNVSPLSWNVAVKKLMAR [F20K] the protein stability index was 1.4.
With NKWTVQYNVSPLSWNVAVKTLMAR [F20T] the protein stability index was 2.1.
For NKWTVQYNVSPLSWNVAVKPLMAR [F20P], the protein stability index was 1.68.
With NKWTVQYNVSPLSWNVAVKNLMAR [F20N] the protein stability index was 2.25.
Variant NKWTVQYNVSPLSPNVAVKFLMAR [W14P] has a protein stability index of 2.08.
For NKWTVQYNVSPLSSNVAVKFLMAR [W14S], the protein stability index was 1.78.
NKWTVQYNVSPLSANVAVKFLMAR [W14A] showed a protein stability index of 2.09.
Variant NKWTVQYNVSPLSCNVAVKFLMAR [W14C] has a protein stability index of 2.29.
NKWTVQYNVSPLSHNVAVKFLMAR [W14H] gave a protein stability index of 2.15.
In the case of NKWTVQYNVSPLSYNVAVKFLMAR [W14Y], the protein stability index is reported as 2.01.
In the case of NKWTVQYPVSPLSWNVAVKFLMAR [N8P], the protein stability index is reported as 1.68.
With NKWTVQYNVSPLSWMVAVKFLMAR [N15M] the protein stability index was 2.53.
NKWTVQYNVSPLSWPVAVKFLMAR [N15P] showed a protein stability index of 2.39.
With NKWTVQYNVSPLSWNVNVKFLMAR [A17N] the protein stability index was 1.22.
Work on NKWTVQYNVSPLSWNVRVKFLMAR [A17R] yielded a protein stability index of 1.47.
With NKWTVQYNVSPLSWNVPVKFLMAR [A17P] the protein stability index was 2.37.
NKWTVQYNVSPLSWNVFVKFLMAR [A17F] showed a protein stability index of 1.58.
NKWTVQYNVSPLSWNVQVKFLMAR [A17Q] gave a protein stability index of 3.33.
Variant NKWTVQYNVSPLSWNVTVKFLMAR [A17T] has a protein stability index of 2.28.
In the case of NKWTVQYNVSPLSWNVAVFFLMAR [K19F], the protein stability index is reported as 1.89.
Variant NKWTVQYNVSPLSWNVAVLFLMAR [K19L] has a protein stability index of 3.29.
In the case of NKWTVQYNVSPLSWNVAVTFLMAR [K19T], the protein stability index is reported as 2.69.
With NKWTVQYNVSPLSWNVAVPFLMAR [K19P] the protein stability index was 1.28.
NKWTEQYNVSPLSWNVAVKFLMAR [V5E] gave a protein stability index of 2.94.
Work on NKWTYQYNVSPLSWNVAVKFLMAR [V5Y] yielded a protein stability index of 1.67.
NKWTNQYNVSPLSWNVAVKFLMAR [V5N] gave a protein stability index of 1.95.
For NKWTAQYNVSPLSWNVAVKFLMAR [V5A], the protein stability index was 2.04.
In the case of NKWTTQYNVSPLSWNVAVKFLMAR [V5T], the protein stability index is reported as 3.23.
In the case of NKWTVQYNVSPLSWNVAVKFLMQR [A23Q], the protein stability index is reported as 2.55.
Work on NKWTVQYNVSPLSWNVAVKFLMHR [A23H] yielded a protein stability index of 3.31.
NKWTVQYNVSPLSWNVAVKFLMNR [A23N] gave a protein stability index of 2.54.
In the case of NKWTVQYNVSPLSWNVAVKFLMRR [A23R], the protein stability index is reported as 2.58.
NKWTVQYNVSPLSWNVAVKFLMYR [A23Y] gave a protein stability index of 2.98.
NKWTVQYNVSPLSWNVAVKFLMLR [A23L] gave a protein stability index of 4.22.
NKWTVQYNVSPLSWNVAVKFLMSR [A23S] showed a protein stability index of 2.48.
NKPTVQYNVSPLSWNVAVKFLMAR [W3P] gave a protein stability index of 1.7.
With NKRTVQYNVSPLSWNVAVKFLMAR [W3R] the protein stability index was 1.97.
NKITVQYNVSPLSWNVAVKFLMAR [W3I] showed a protein stability index of 2.66.
Work on NKWTVHYNVSPLSWNVAVKFLMAR [Q6H] yielded a protein stability index of 3.77.
In the case of NKWTVDYNVSPLSWNVAVKFLMAR [Q6D], the protein stability index is reported as 2.28.
In the case of NKWTVFYNVSPLSWNVAVKFLMAR [Q6F], the protein stability index is reported as 2.83.
For NKWTVYYNVSPLSWNVAVKFLMAR [Q6Y], the protein stability index was 2.07.
